# Literature values as cited in publication PMC10648573.
# Read-outs that look alike come from different tables or passages of the source.
# Tests used:
# [1] = target: NGALR 1-105 (Homo sapiens) (UniProt Q8WUG5)
# 24p3R (Homo sapiens) = 24p3R (Homo sapiens) (UniProt Q8WUG5)
# megalin (Homo sapiens) = megalin (Homo sapiens) (UniProt P98164)
# [2] = target: NGALR 1-105 (Homo sapiens) (UniProt Q8WUG5); remark: listed apart in the source
# Chain of UniProt P98164 (P98164 26-4423): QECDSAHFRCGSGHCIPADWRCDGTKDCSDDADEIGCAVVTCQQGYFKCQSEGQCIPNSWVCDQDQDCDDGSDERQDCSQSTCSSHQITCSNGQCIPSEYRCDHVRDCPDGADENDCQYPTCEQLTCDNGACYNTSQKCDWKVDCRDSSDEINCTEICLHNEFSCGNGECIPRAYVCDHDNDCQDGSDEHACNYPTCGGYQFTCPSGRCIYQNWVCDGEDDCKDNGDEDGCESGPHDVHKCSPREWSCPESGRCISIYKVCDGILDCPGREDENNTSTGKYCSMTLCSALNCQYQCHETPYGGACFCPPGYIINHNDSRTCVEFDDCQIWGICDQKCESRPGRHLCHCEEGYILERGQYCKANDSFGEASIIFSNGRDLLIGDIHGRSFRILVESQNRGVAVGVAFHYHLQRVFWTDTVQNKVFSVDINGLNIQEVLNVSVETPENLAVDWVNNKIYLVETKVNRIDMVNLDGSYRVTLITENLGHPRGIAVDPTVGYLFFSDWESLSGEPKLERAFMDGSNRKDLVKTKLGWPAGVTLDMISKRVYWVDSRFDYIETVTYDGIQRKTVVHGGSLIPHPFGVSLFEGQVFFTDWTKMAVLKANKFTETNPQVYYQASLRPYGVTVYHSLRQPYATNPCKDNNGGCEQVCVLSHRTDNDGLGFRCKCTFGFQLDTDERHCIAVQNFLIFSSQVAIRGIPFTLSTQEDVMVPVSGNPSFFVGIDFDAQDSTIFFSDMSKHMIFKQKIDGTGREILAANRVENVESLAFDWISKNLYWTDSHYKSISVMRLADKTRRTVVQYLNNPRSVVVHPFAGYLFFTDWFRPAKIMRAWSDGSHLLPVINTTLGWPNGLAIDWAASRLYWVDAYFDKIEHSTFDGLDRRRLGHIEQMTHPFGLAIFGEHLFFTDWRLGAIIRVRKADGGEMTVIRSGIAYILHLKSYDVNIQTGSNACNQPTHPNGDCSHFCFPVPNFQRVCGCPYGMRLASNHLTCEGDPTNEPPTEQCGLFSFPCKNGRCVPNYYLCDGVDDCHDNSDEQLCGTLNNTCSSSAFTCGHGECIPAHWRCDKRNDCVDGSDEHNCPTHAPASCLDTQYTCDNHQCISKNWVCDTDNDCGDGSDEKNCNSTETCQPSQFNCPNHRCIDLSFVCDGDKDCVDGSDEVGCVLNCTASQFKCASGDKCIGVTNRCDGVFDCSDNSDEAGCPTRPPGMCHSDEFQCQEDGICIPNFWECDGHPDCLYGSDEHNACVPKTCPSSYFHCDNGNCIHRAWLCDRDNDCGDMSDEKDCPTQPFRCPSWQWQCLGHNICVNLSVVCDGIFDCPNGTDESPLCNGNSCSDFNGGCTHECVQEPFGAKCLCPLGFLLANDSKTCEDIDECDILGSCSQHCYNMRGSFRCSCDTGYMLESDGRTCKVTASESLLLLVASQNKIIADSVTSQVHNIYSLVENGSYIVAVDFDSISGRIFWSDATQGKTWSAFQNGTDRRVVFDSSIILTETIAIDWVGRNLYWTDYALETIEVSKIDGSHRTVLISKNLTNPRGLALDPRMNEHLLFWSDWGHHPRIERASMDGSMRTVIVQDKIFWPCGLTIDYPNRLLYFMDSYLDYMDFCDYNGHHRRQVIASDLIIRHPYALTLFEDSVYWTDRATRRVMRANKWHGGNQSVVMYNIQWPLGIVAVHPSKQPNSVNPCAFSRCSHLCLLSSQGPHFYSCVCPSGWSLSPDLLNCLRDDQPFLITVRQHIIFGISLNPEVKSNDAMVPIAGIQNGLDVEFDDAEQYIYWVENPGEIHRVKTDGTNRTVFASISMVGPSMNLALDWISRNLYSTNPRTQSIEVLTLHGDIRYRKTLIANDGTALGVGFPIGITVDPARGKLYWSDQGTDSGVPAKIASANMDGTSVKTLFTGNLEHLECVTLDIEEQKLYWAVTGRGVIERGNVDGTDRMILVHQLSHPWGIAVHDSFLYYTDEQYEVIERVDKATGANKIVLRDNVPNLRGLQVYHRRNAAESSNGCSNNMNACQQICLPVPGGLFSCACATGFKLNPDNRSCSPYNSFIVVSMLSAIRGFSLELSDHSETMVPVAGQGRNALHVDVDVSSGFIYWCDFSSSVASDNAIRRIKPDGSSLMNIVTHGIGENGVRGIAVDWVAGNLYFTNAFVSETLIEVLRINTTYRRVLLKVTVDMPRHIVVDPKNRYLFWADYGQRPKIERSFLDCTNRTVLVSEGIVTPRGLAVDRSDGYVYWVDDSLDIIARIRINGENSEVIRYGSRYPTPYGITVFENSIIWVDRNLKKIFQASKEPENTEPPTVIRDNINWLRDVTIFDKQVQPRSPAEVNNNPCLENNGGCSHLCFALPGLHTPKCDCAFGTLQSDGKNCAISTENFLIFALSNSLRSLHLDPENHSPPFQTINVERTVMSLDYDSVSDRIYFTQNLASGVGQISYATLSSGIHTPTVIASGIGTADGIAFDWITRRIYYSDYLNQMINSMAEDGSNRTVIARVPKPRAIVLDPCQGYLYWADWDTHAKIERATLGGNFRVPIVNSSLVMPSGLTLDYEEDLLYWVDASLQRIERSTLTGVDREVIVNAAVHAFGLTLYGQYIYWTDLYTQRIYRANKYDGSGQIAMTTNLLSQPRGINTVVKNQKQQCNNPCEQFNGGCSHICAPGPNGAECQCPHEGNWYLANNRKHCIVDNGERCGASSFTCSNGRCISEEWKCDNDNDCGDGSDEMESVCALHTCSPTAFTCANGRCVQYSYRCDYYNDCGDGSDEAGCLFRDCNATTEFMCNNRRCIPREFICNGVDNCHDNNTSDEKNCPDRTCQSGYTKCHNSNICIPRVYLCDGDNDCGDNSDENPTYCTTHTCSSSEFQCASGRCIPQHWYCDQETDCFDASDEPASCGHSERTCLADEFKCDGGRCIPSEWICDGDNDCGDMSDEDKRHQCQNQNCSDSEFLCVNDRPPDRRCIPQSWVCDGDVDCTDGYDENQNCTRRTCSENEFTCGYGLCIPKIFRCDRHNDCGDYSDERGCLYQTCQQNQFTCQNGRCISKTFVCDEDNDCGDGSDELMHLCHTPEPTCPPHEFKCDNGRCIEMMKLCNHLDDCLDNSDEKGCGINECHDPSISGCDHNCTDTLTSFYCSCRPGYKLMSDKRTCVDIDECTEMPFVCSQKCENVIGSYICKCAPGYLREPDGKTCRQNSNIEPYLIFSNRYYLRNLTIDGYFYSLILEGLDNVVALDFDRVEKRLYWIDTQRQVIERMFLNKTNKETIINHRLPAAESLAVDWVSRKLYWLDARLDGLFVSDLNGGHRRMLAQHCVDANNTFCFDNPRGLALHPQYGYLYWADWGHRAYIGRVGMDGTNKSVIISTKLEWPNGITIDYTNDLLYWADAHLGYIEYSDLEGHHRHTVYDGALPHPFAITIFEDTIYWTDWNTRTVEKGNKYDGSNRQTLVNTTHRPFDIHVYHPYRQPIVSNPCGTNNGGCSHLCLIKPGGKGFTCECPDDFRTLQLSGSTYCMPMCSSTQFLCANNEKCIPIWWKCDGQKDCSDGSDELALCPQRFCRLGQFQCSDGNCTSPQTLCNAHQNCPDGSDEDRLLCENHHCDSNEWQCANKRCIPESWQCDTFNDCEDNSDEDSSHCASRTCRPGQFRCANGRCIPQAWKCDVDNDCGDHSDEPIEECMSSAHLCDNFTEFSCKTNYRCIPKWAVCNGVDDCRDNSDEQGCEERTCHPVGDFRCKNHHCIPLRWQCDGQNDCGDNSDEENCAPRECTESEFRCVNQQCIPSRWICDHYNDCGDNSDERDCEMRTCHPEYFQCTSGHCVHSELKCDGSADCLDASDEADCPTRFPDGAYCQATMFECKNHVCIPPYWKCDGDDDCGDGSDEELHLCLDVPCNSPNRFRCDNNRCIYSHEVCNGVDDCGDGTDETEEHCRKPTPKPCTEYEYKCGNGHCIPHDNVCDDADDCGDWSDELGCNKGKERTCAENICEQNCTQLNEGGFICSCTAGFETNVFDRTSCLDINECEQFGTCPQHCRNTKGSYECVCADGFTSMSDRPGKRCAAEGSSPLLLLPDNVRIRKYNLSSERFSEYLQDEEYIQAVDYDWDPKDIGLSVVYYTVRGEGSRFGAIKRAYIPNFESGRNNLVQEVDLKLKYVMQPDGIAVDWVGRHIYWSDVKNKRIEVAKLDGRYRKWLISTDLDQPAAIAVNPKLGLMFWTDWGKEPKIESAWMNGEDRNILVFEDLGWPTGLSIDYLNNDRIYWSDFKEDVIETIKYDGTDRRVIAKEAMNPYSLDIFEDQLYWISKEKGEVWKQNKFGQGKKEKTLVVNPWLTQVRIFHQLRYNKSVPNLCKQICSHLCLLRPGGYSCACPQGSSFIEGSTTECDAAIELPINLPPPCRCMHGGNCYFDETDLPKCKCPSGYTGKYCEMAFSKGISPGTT
Substance,Kd [1] [µM],Kd (24p3R (Homo sapiens)) [nM],Kd (megalin (Homo sapiens)) [µM],Kd [2] [µM]
Lipocalin-2 (apo) (from UniProt P80188),8.5,–,–,–
Lipocalin-2 (from UniProt P80188),–,0.092,0.06,20
